What is called stoichiometry N is the number of molecules, sites or subunits per partner or assembly. What is called IC50 is the concentration at which inhibition is half-maximal. The low end stands for inhibition by little substance, the high end for a need for much substance.

Assay [1] deals with Chimera of the α7-nAChR extracellular domain with acetylcholine-binding protein (α7-ECD) (human α7-nAChR / Lymnaea stagnalis AChBP chimera). The experiment in a line: cryo-EM structure.
In assay [2] the target is T1, Nicotinic acetylcholine receptor of α7 type (α7-nAChR) expressed in HEK293 cells (UniProt P36544 23-502).
T1 construct: also called full-length α7 receptor; α7 receptor
The experiment in a line: flow cytometry on cells. To be noted: one partner purified. In general terms: Flow cytometry measures light scatter and fluorescence of single cells or particles in a stream.

“Chimera of the α7-nAChR extracellular domain with acetylcholine-binding protein (α7-ECD) (domain or fragment)” displayed a stoichiometry N in assay [1] of 5.

B1: Weak toxin from Naja kaouthia venom (WTX), recombinant analog (natural protein)
chain: MLTCLNCPEMFCGKFQICRNGEKICFKKLHQRRPLSWRYIRGCADTCPVGKPYEMIECCSTDKCNR
modifications: disulfide (positions not given here); also: five disulfide bonds, pairing not given here
In the case of B1, 26 ± 4 µM corresponded to half-maximal inhibition in assay [2] (IC50).

The values above are taken from publication PMC9729238 (Communications Biology, 2022).
